Data as given in patent publication US20170260508A1.

Molecular target: chimeric LILRB2-PILRβ receptor (aa 24-458 of hLILRB2) on mouse T cell hybridoma NFAT-GFP reporter cells (human), Q8N423
Experiment: cell-based or functional assay

chimeric LILRB2-PILRβ receptor (aa 24-458 of hLILRB2) on mouse T cell hybridoma NFAT-GFP reporter cells (human), Q8N423, sequence (Q8N423 other isoform, or with tags, fused parts or gaps mutant limits assumed, form in doubt): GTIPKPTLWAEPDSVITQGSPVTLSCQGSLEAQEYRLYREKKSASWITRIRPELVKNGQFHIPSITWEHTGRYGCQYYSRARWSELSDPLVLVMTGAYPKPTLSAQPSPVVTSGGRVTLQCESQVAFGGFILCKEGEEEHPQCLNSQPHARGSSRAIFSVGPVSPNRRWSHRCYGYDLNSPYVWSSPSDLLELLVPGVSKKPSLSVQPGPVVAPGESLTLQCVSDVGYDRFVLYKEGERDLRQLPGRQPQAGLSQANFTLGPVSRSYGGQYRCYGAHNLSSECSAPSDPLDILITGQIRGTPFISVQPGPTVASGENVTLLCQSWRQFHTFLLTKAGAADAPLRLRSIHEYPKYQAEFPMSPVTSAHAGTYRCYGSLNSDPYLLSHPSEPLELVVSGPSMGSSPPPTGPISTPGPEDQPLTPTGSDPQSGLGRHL

GFP expression of LILRB2 reporter cells after 24 h with Angptl2 conditioned medium (2 µg/ml); control: mock medium: 18.9%
B1: Angptl2-FLAG, full-length human Angptl2 secreted from transfected 293T cells, Q9UKU9 23-493 (ligand, not shown: small tags and cut ends)
chain: QEDGFEGTEEGSPREFIYLNRYKRAGESQDKCTYTFIVPQQRVTGAICVNSKEPEVLLENRVHKQELELLNNELLKQKRQIETLQQLVEVDGGIVSEVKLLRKESRNMNSRVTQLYMQLLHEIIRKRDNALELSQLENRILNQTADMLQLASKYKDLEHKYQHLATLAHNQSEIIAQLEEHCQRVPSARPVPQPPPAAPPRVYQPPTYNRIINQISTNEIQSDQNLKVLPPPLPTMPTLTSLPSSTDKPSGPWRDCLQALEDGHDTSSIYLVKPENTNRLMQVWCDQRHDPGGWTVIQRRLDGSVNFFRNWETYKQGFGNIDGEYWLGLENIYWLTNQGNYKLLVTMEDWSGRKVFAEYASFRLEPESEYYKLRLGRYHGNAGDSFTWHNGKQFTTLDRDHDVYTGNCAHYQKGGWWYNACAHSNLNGVWYRGGHYRSRYQDGVYWAEFRGGSYSLKKVVMMIRPNPNTFH
